Laboratory results published in the supplement of paper PMC9732359.
± gives the uncertainty stated by the source.

assay: protein stability index of a GFP-peptide fusion (yeast GPS) (PSI 1-4); higher = more stable; sorted into four equal gates, so the index is relative within each strain; settings: pdr5∆
Method in brief: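 Yeast carrying a pooled library were grown to mid-log phase in leucine-free medium. Each library plasmid expresses Cherry and has a tiled 17-residue yeast protein peptide fused downstream of GFP. Cells were sorted into four equal gates by GFP/Cherry ratio, and plasmids from each gate were PCR-amplified, Illumina-sequenced and assigned to strains by barcode. Summing, across gates, the read frequency times the gate number gave each peptide's protein stability index.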

Sequence | protein stability index
AVAVVVDPIQSVKGKVV [RPN11] | 2.64 ± 0.14
AVIAAIMQEAGLRAVRK [RPT3] | 1.15 ± 0.19
AVKRGTCAVGVKGKNCV [PRE6] | 1.62 ± 0.18
AVQNESVSSPIELNFDA [QCR2] | 2.95 ± 0.061
AVTEREVLVTPGLEFLD [MCD1] | 3.15 ± 0.15
AVYGPRSIRGSFTSQGT [MTR3] | 3.2 ± 0.086
AYAQVEIQPRANIQLDF [FAS2] | 3.06 ± 0.066
AYGVLDSNYKWDLSVED [PRE2] | 2.94 ± 0.083
AYHQKYVDEQSKNELKK [RPS16A] | 2.02 ± 0.094
CGGINDSIPYPQIVKLF [ECM29] | 1.31 ± 0.06
CGHRILLKARTKRLVQF [RPC10] | 1.99 ± 0.13
CIQVNCLNCEKSKLFEW [SNM1] | 3.29 ± 0.058
CLEACSFILSSLEDPQV [YDL116W/NUP84] | 2.71 ± 0.054
CLMRSLHKLELKAKNQE [DSN1] | 1.31 ± 0.067
CLQDALDAIDDFIQLKQ [SSN2] | 2.6 ± 0.056
CLTMFEDRNESVNIAFA [ECM29] | 2.52 ± 0.094
CNEEQTLEAKIGGLLSK [RPO31] | 3.25 ± 0.059
CNSIINKLGALKTNFET [RPB11] | 2.42 ± 0.099
CSGSGMGGVSALRGMFK [FAS2] | 3.68 ± 0.08
CSKAMGDLASLVLLNGR [RPP1] | 2.9 ± 0.05
CSNESFASIPVSNSISR [SNU114] | 2.67 ± 0.057
CSNPTCGAGVFLANHKD [RPS31] | 2.82 ± 0.21
CSPKLPVEKVQRIAKND [DLS1] | 3.32 ± 0.12
CSPWSLQISDIPAAGNN [SRB5] | 2.21 ± 0.04
CTSLMDIIVAIKIFELK [IRR1] | 1.41 ± 0.16

Sequence | protein stability index
CVYSGLIPDGRHLVNRG [PRE10] | 1.82 ± 0.22
CWPKDSRMRLIRQDVNL [PRP8] | 2.68 ± 0.09
DADTEDPHSASLINSHL [RPC82] | 3.27 ± 0.085
DAELMADEEEEIVDTYQ [ISW2] | 1.3 ± 0.27
DALKVVLRTALVHDGLA [RPS12] | 2.51 ± 0.14
DALVKRFKNSVKWYHFD [PRE7] | 3.37 ± 0.12
DAVKDFKLGKFNYVAVG [QCR2] | 1.52 ± 0.14
DCLDKLLNDECTESTRE [SNF2] | 3.4 ± 0.13
DCQFWETWLGSQCRLHE [PRE2] | 2.1 ± 0.14
DDDDSRKSAPVDSWDRE [SKP1] | 3.21 ± 0.048
DDDILIIRPILGKVRFA [SRB4] | 1.66 ± 0.092
DDELMNWRRLSGRNIHL [SSN2] | 2.91 ± 0.074
DDIVSHQGTPLGSHSSS [REC8] | 3.37 ± 0.12
DDLADDDFEEDEDEEDD [RPC31] | 3.31 ± 0.12
DDLIAEENPIMQTALRR [QCR7] | 3.24 ± 0.22
DDPLENMFGDYSNEPFN [SNF6] | 2.81 ± 0.069
DDPTQLVSRGGCGNTQP [RPO21] | 2.55 ± 0.19
DDRGPVLESIVARTFWA [BRR2] | 2.07 ± 0.057
DDSFFNETNDKKRNPSK [PRP28] | 2.96 ± 0.1
DDSRNPDCKIKIAHGTT [PRE2] | 2.77 ± 0.067
DDTKETVYISSIALLKM [RPN11] | 2.77 ± 0.084
DDVTCDKLSVSEISDGK [SIN4] | 3.11 ± 0.078
DEAKEKQLVEKAELRLA [ECM29] | 3.26 ± 0.24
DEDKFKKLKPIVAKYDP [PRP28] | 2.9 ± 0.088
DEESLVKYMPEQKITEI [RPO21] | 2.94 ± 0.098
